Data reported in US20200407704, “FUSION PROTEINS AND METHODS FOR SITE-DIRECTED GENOME EDITING” (The Regents of the University of California, published 2020).

T1: hADAR1d E1008Q (Homo sapiens, UniProt P55265 SEQ:833-1226)
T1 chain: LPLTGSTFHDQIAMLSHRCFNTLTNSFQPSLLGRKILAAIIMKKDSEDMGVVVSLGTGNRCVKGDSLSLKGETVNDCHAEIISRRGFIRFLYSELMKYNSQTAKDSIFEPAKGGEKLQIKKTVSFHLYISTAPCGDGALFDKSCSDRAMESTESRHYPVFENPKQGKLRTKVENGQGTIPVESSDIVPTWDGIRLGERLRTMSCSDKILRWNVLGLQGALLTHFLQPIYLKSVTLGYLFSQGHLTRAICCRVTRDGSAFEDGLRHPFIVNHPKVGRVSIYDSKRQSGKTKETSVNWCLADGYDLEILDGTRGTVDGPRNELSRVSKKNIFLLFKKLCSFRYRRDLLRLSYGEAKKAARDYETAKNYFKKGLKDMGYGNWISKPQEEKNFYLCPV

B1: M13 GAA site + guide RNA (DNA:RNA)
DNA: AGGCCAGACGCGAATTATTTTTGA
RNA: UCAAAAAUAAUCCGCGUCUGGCCU
B2: M13 AAG site + guide RNA (DNA:RNA)
DNA: CCAAATGGCTCAAGTCGGTGACGG
RNA: CCGUCACCGACCUGAGCCAUUUGG
B3: M13 TAG site + guide RNA (DNA:RNA)
DNA: CCTCGCGTTCTTAGAATACCGGAT
RNA: AUCCGGUAUUCCAAGAACGCGAGG
B4: M13 CAC site + guide RNA (DNA:RNA)
DNA: CTTTCTATTCTCACTCCGCTGAAA
RNA: UUUCAGCGGAGCGAGAAUAGAAAG

Tests used:
[1] = test system: hADAR2d (ADAR2 deaminase domain, hADAR2-D WT) (Homo sapiens); conditions: DNA strand of hybrid, 250 nM, 60 min
[2] = test system: HBD-ADAR2 deaminase fusion (RNase H1 hybrid binding domain) (Homo sapiens); conditions: DNA strand of hybrid, 250 nM, 60 min
hADAR1d E1008Q = molecular target: T1, hADAR1d E1008Q; test: 500 nM, 2 h; conditions: dA-C mismatch
Protocol: M13 genomic ssDNA (New England Biolabs) was hybridized with the corresponding guide RNAs. The guide RNA to genomic DNA molar ratio was 20:1 for each hybridization. Deamination reactions were carried out as previously described (21) with the following modifications. The final reaction volume was 10 μL. hADAR1d E1008Q was used for the reaction and the final enzyme concentration was 500 nM. The final RNA concentration was 2.8 nM. The final reaction solution contained 13 mM Tris-HCl, pH 7.2, 3.6% glycerol, 1.2 mM EDTA, 0.002% NP-40, 40.5 mM potassium glutamate, 12.5 mM KCl, 6 mM NaCl, 0.6 mM DTT, 160 units/mL RNasin, and 1 μg/mL yeast tRNA. Reactions were quenched by adding 190 μL 95° C. nuclease-free water followed by incubation at 95° C. for 5 minutes. The target regions of the reaction products were PCR amplified with primers using GoTaq® DNA Polymerase (Promega). PCR products were purified by agarose gel, extracted using a QIAquick Gel Extraction Kit (Qiagen), and sequenced with the forward PCR primers. The sequencing peak heights were measured with Chromas for calculating the editing level. Each experiment was carried out in triplicate. The editing level for the corresponding zero time point was subtracted from each data point as background subtraction. Statistical significance between groups was determined by t tests using QuickCalcs (GraphPad Software).

Row | Molecule | activity [1] [% edited] | activity [2] [% edited] | activity (hADAR1d E1008Q) [% edited]
1 | DNA/RNA hybrid duplex used with HBD fusion | 35 | 90 | –
2 | B1 | – | – | 27
3 | B2 | – | – | 81
4 | B3 | – | – | 94
5 | B4 | – | – | 53
